± gives the standard deviation of the averaged measurements.
Test: total protein half-life in vivo (active degradation + dilution); higher = more stable protein
[1] = E. coli NCM3722 delta-clpP delta-lon delta-hslV, growth: N-lim chemostat, doubling time 6 h
[2] = wild type E. coli NCM3722, growth: C-lim chemostat, doubling time 12 h
[3] = wild type E. coli NCM3722, growth: P-lim chemostat, doubling time 6 h
[4] = wild type E. coli NCM3722, growth: P-lim chemostat, doubling time 12 h
[5] = E. coli NCM3722 delta-clpP, growth: N-lim chemostat, doubling time 6 h
[6] = wild type E. coli NCM3722, growth: C-lim chemostat, doubling time 3 h
[7] = wild type E. coli NCM3722, growth: C-lim chemostat, doubling time 6 h
[8] = E. coli NCM3722 delta-hslV, growth: N-lim chemostat, doubling time 6 h
[9] = E. coli NCM3722 delta-lon, growth: N-lim chemostat, doubling time 6 h
[10] = E. coli NCM3722 delta-smpB, growth: N-lim chemostat, doubling time 6 h
[11] = wild type E. coli NCM3722, growth: N-lim chemostat, doubling time 6 h
[12] = wild type E. coli NCM3722, growth: N-lim chemostat, doubling time 12 h

Sequence | total protein half-life in vivo [1] [h] | total protein half-life in vivo [2] [h] | total protein half-life in vivo [3] [h] | total protein half-life in vivo [4] [h] | total protein half-life in vivo [5] [h] | total protein half-life in vivo [6] [h] | total protein half-life in vivo [7] [h] | total protein half-life in vivo [8] [h] | total protein half-life in vivo [9] [h] | total protein half-life in vivo [10] [h] | total protein half-life in vivo [11] [h] | total protein half-life in vivo [12] [h]
MRDIQMVLERWGAWAANNHEDVTWSSIAAGFKGLITSKVKSRPQCCDDDAMIICGCMARLKKNNSDLHDLLVDYYVVGMTFMSLAGKHCCSDGYIGKRLQKAEGIIEGMLMALDIRLEMDIVVNNSN | 2.96 | 8.73 | 5.67 | 10.4 ± 0.22 |  |  |  |  |  |  |  | 
MNQQDIEQVVKAVLLKMQSSDTPSAAVHEMGVFASLDDAVAAAKVAQQGLKSVAMRQLAIAAIREAGEKHARDLAELAVSETGMGRVEDKFAKNVAQARGTPGVECLSPQVLTGDNGLTLIENAPWGVVASVTPSTNPAATVINNAISLIAAGNSVIFAPHPAAKKVSQRAITLLNQAIVAAGGPENLLVTVANPDIETAQRLFKFPGIGLLVVTGGEAVVEAARKHTNKRLIAAGAGNPPVVVDETADLARAAQSIVKGASFDNNIICADEKVLIVVDSVADELMRLMEGQHAVKLTAEQAQQLQPVLLKNIDERGKGTVSRDWVGRDAGKIAAAIGLKVPQETRLLFVETTAEHPFAVTELMMPVLPVVRVANVADAIALAVKLEGGCHHTAAMHSRNIENMNQMANAIDTSIFVKNGPCIAGLGLGGEGWTTMTITTPTGEGVTSARTFVRLRRCVLVDAFRIV | 5.64 ± 1.3 |  |  |  |  |  |  |  |  |  |  | 
MMDLDNIPDTQTEAEELEEVVMGLIINSGQARSLAYAALKQAKQGDFAAAKAMMDQSRMALNEAHLVQTKLIEGDAGEGKMKVSLVLVHAQDHLMTSMLARELITELIELHEKLKA | 4.73 | 2.66 |  |  | 2.85 ± 0.031 | 1.44 | 1.82 ± 0.14 |  |  |  |  | 
MNVLRSGIVTMLLLAAFSVQAACTWPAWEQFKKDYISQEGRVIDPSDARKITTSEGQSYGMFSALAANDRAAFDNILDWTQNNLAQGSLKERLPAWLWGKKENSKWEVLDSNSASDGDVWMAWSLLEAGRLWKEQRYTDIGSALLKRIAREEVVTVPGLGSMLLPGKVGFAEDNSWRFNPSYLPPTLAQYFTRFGAPWTTLRETNQRLLLETAPKGFSPDWVRYEKDKGWQLKAEKTLISSYDAIRVYMWVGMMPDSDPQKARMLNRFKPMATFTEKNGYPPEKVDVATGKAQGKGPVGFSAAMLPFLQNRDAQAVQRQRVADNFPGSDAYYNYVLTLFGQGWDQHRFRFSTKGELLPDWGQECANSH | 5.88 ± 0.14 |  | 5.86 ± 0.12 | 12.7 ± 0.61 | 6.89 ± 0.16 | 3.19 ± 0.12 | 6.41 ± 0.42 | 6.78 ± 0.68 | 6.5 ± 0.64 | 5.684 ± 0.013 | 6.48 ± 1.2 | 14 ± 0.56
MLNLFVGLDIYTGLLLLLALAFVLFYEAINGFHDTANAVAAVIYTRAMQPQLAVVMAAFFNFFGVLLGGLSVAYAIVHMLPTDLLLNMGSTHGLAMVFSMLLAAIIWNLGTWFFGLPASSSHTLIGAIIGIGLTNALLTGSSVMDALNLREVTKIFSSLIVSPIVGLVIAGGLIFLLRRYWSGTKKRDRIHRIPEDRKKKKGKRKPPFWTRIALIVSAAGVAFSHGANDGQKGIGLVMLVLVGIAPAGFVVNMNASGYEITRTRDAVTNFEHYLQQHPELPQKLIAMEPPLPAASTDGTQVTEFHCHPANTFDAIARVKTMLPGNMESYEPLSVSQRSQLRRIMLCISDTSAKLAKLPGVSKEDQNLLKKLRSDMLSTIEYAPVWIIMAVALALGIGTMIGWRRVAMTIGEKIGKRGMTYAQGMAAQMTAAVSIGLASYIGMPVSTTHVLSSAVAGTMVVDGGGLQRKTVTSILMAWVFTLPAAIFLSGGLYWIALQLI | 6.37 |  | 6.03 ± 0.27 | 13.1 | 5.68 |  |  |  |  | 5.61 ± 0.43 | 6.47 | 
MSEEKLGQHYLAALNEAFPGVVLDHAWQTKDQLTVTVKVNYLPEVVEFLYYKQGGWLSVLFGNDERKLNGHYAVYYVLSMEKGTKCWITVRVEVDANKPEYPSVTPRVPAAVWGEREVRDMYGLIPVGLPDERRLVLPDDWPDELYPLRKDSMDYRQRPAPTTDAETYEFINELGDKKNNVVPIGPLHVTSDEPGHFRLFVDGENIIDADYRLFYVHRGMEKLAETRMGYNEVTFLSDRVCGICGFAHSTAYTTSVENAMGIQVPERAQMIRAILLEVERLHSHLLNLGLACHFTGFDSGFMQFFRVRETSMKMAEILTGARKTYGLNLIGGIRRDLLKDDMIQTRQLAQQMRREVQELVDVLLSTPNMEQRTVGIGRLDPEIARDFSNVGPMVRASGHARDTRADHPFVGYGLLPMEVHSEQGCDVISRLKVRINEVYTALNMIDYGLDNLPGGPLMVEGFTYIPHRFALGFAEAPRGDDIHWSMTGDNQKLYRWRCRAATYANWPTLRYMLRGNTVSDAPLIIGSLDPCYSCTDRMTVVDVRKKKSKVVPYKELERYSIERKNSPLK | 4.79 | 11.2 ± 0.78 | 5.02 | 8.26 ± 0.97 |  | 2.46 | 5.18 | 2.89 | 3.68 | 2.74 ± 0.029 | 3.86 ± 1.7 | 
MTARYIAIDWGSTNLRAWLYQGDHCLESRQSEAGVTRLNGKSPAAVLAEVTTDWREEKTPVVMAGMVGSNVGWKVAPYLSVPACFSSIGEQLTSVGDNIWIIPGLCVSHDDNHNVMRGEETQLIGARALAPSSLYVMPGTHCKWVQADSQQINDFRTVMTGELHHLLLNHSLIGAGLPPQENSADAFTAGLERGLNTPAILPQLFEVRASHVLGTLPREQVSEFLSGLLIGAEVASMRDYVAHQHAITLVAGTSLTARYQQAFQAMGCDVTAVAGDTAFQAGIRSIAHAVAN |  |  | 4.75 | 7.85 |  | 3.12 ± 0.4 |  |  |  |  |  | 
MKNQAHPIIVVKRRKAKSHGAAHGSWKIAYADFMTAMMAFFLVMWLISISSPKELIQIAEYFRTPLATAVTGGDRISNSESPIPGGGDDYTQSQGEVNKQPNIEELKKRMEQSRLRKLRGDLDQLIESDPKLRALRPHLKIDLVQEGLRIQIIDSQNRPMFRTGSADVEPYMRDILRAIAPVLNGIPNRISLSGHTDDFPYASGEKGYSNWELSADRANASRRELMVGGLDSGKVLRVVGMAATMRLSDRGPDDAVNRRISLLVLNKQAEQAILHENAESQNEPVSALEKPEVAPQVSVPTMPSAEPR [P0AF06] |  | 1.33 |  |  |  | 0.683 ± 0.017 | 1.21 |  |  |  |  | 
MSSYANHQALAGLTLGKSTDYRDTYDASLLQGVPRSLNRDPLGLKADNLPFHGTDIWTLYELSWLNAKGLPQVAVGHVELDYTSVNLIESKSFKLYLNSFNQTRFNNWDEVRQTLERDLSTCAQGKISVALYRLDELEGQPIGHFNGTCIDDQDITIDNYEFTTDYLENATCGEKVVEETLVSHLLKSNCLITHQPDWGSLQIQYRGRQIDREKLLRYLVSFRHHNEFHEQCVERIFNDLLRFCQPEKLSVYARYTRRGGLDINPWRSNSDFVPSTTRLVRQ | 5.36 ± 0.64 | 8.79 ± 1.1 | 5.622 ± 0.049 | 10.92 ± 0.053 | 5.85 ± 1.8 | 2.81 ± 0.26 | 5.542 ± 0.011 | 5 ± 0.28 | 4.54 ± 0.56 | 4.09 ± 0.3 | 4.41 ± 0.24 | 7.06 ± 0.16
MRLTSKGRYAVTAMLDVALNSEAGPVPLADISERQGISLSYLEQLFSRLRKNGLVSSVRGPGGGYLLGKDASSIAVGEVISAVDESVDATRCQGKGGCQGGDKCLTHALWRDLSDRLTGFLNNITLGELVNNQEVLDVSGRQHTHDAPRTRTQDAIDVKLRA [P0AGK8] | 5.43 ± 0.76 | 2.04 ± 0.57 | 1.53 ± 0.5 | 2.18 ± 0.6 | 2.85 ± 0.1 | 1.22 ± 0.076 | 1.76 ± 0.058 | 1.38 ± 0.36 | 1.43 ± 0.34 | 1.04 ± 0.058 | 1.057 ± 0.0037 | 1.37 ± 0.1
MTQNIRPLPQFKYHPKPLETGAFEQDKTVECDCCEQQTSVYYSGPFYCVDEVEHLCPWCIADGSAAEKFAGSFQDDASIEGVEFEYDEEDEFAGIKNTYPDEMLKELVERTPGYHGWQQEFWLAHCGDFCVFIGYVGWNDIKDRLDEFANLEEDCENFGIRNSDLAKCLQKGGHCQGYLFRCLHCGKLRLWGDFS | 5.27 |  |  |  |  |  |  |  |  |  |  | 
